Consider 22 sequences from a protein production outcome set (Wang et al. 2014).

This data set can be described thus: label from the status in PepcDB records.

With “MTEDERFAWLQLAFTPYIGAESFLLLMRSFGSAQNALSAPAEQVAPAVRHKHALEAWRNAEKRALARQAAEAALEWEMRDGCRLMLLQDEDFPEMLTQGLTAPPVLFLRGNVRLLHKPSAAIVGSRHATPQAMRIAKDFGRALGGKGIPTVSGMASGIDTAAHQGALEAEGGTVAVWGTGIDRIYPPANKNLAYEIAEKGLIVSEFPIGTRPYAGNFPRRNRLIAALSQVTLVVEAALESGSLITAGLAAEMGREVMAVPGSIDNPHSKGCHKLIKDGAKLTECLDDILNECPGLLQNTGASSYSINKDTPDTGRRAVQTAYAPPPAAKMPSEGAAGGTAVGGILDKMGFDPVHPDVLAGQLAMPAADLYAALLELELDGSVAAMPGGRYQRIRT”, the protein production result is given as “failed”. As for “MTEEFNESMINDIKEGDKVTGEVQQVEDKQVVVHINGGKFNGIIPISQLSTHHIENPSEVVKVGDEVEAYVTKIEFDEENDTGAYILSKRQLETEKSYEYLQEKLDNDEVIEAEVTEVVKGGLVVDVGQRGFVPASLISTDFIEDFSVFDGQTIRIKVEELDPENNRVILSRKAVEQLENDAKKASILDSLNEGDVIDGKVARLTNFGAFINIGGVDGLVHVSELSHGTCSNTRRSCVSRLEHHHHHH”, the entry is “not failed”. As for “MTEEQVQHWFDMFGSLGYIAGFLLPFIEAFIPILPIIVFIIVNVNAFGWFIGTVLAWAGTVAGSYIVFLFFRRLNNTKYMKKVQQRTSVQRLIHFIDRRGVIPIFILMCFPFTPSALVNIVASMSHIKAHAYLTVLIISKFIMIGLVGWLGNDITTLFSNPTRLITIVVVIIIVWFVGRKIEKHFMSSSEE”, the entry is “failed”; as for “MTEGGRVSNTSRVTRRTGLRTAAAVAAALPLLSASPASASRNRGRRLDVMTFNLRFASASEPHSWAVRRPVMRELLRRERPHVIGTQEGLYQQVRDIEADLGPHYDWIGTGRAGGSRDEFMAVFYDTRRLAPLEYDHFWLSDTPDVIGSNTWGGGSIRMVTRVRFRDLADGDRPFHFLNTHLDNASQYARARAAALIADRIAGLDRSQPLVVTGDFNAAAHKNAVYETMLGAGLVDTWDTAAERGKLYGTFHGYKPLVPDGDRIDWILASPGVAAHCASINAFSSNGQFPSDHLPVQASLRLA”, “failed”. “MTELVQQLALLDALLSNWDGVLVRMGAPDVLRDEALAALAVKLSSAESPDDLDLLLDDLFDLVEDTPAYDYVRGLIARARLDTGTVAKTRGGYAGELVSDDEKSLLFGASRLAGRALGNAVSADVEPCQVEVFFATNRKSSDASDLQFTGEHDAGGYTCGVAHVTIPVGVHRAGVLEGKRWWHLLREKDDSRRYVVLGSVEKLAEDLFTTRIVEGAPECRDLLVFLHGFNVTFEDAARQAAQFAFDLQFQGRVVLYSWPSLGSLAGYCADEERAFLSNGRFAGFLGMLEDGPWDKVHILAHSMGNRVMLYGLSGNSWPNGRISQVVFAAADVYVETFRELFPKIREKAALYTSYTSKKDRALLISGILHKAKRIGISRGEPFVMDGLETIDASKVDNGFPGHGYFAEETKLIEDISQLLGKGLSAGRRKLYQPPSKAYWDFR”: the protein production entry was “failed”. Regarding “MTENNQTAPNPESLDGLSYEEAREQLVAVVGRLEAGGASLEESLALWERGEALAKRCEDWLEGARKRLATARDASSDGGTPA”, the protein production entry is recorded as “failed”. With “MTENSRKTATELFEFLDGLGISHTTKQHEPVFTVAESQSLRDLIPGGHTKNLFVKDKKDQYFVLTVEENAVVDLKSVHKTIGAASRVSFGRPEKMLEYLGVVPGSVTVFGAINDTARQVTFVLDSDLLENELVNGHPLSNDQTTTIASKDLIRFLEATGHAPLVLKVSE” the entry was “not failed”.

For “MTENTNFKSGYSEVNGLKMYYEIHGEGKPLVLIHGGGSTIKTSFGNILPLLLKSRQIIVMELQAHGHTGDRETDLTFEQDADDVAKLLENLQITKADFLGFSNGGHTTIEIALRHKKIVDKILLASAFYKRDAVVPEFWDGFDSATLEMMPKVLQEGYLKANDDEKGLLNMFKKDVQKMKDFKGWTDEQMKSITAKTLIINGNNDVGSIEHAVEMYRILPNCELAILPGGHGTYLGAIESLPNGEWTMKYVAELIEEFFDKH”, the protein production result is “failed”. In the case of “MTEQHSHQFERGTDGPKVILVGVDGSDSSLHAAAYAAGLARRQHALLAVVYVQPVMAAGAALGVPVADTTDEIAADLVQYIRDATERVKDIFEVRWEFHTFRGDPYNGLVTAADELKADAVVVGASEQAGHRIVGSVAVRLVKAGRWPVTVVP”, the protein production entry is recorded as “not failed”. As for “MTETDKKQEQENHAECEDKPKPCCVCKPEKEERDTCILFNGQDSEKCKEFIEKYKECMKGYGFEVPSAN”, the entry is “not failed”. With “MTETKTIRFLSIIGCLLAGMAASCSSRQVAPNEEGISVQKMTGFPEGEPGFSLGVSACYAGIYQGELLIAGGCNFPETPAAEGGKKKFYQGIYAADASADSVFVWRKVGQLPVAAAYGVSVSTPRGIVCVGGSNENGSLSTVYRLSLSDDKQAVIVDTLPSLPCTMDNMSGSVVDYTLFVAGGNVNGKPSNGLYCLNLGNPETGWQQLPDFPGAPRVQPVCVGQRKENETLLYLWGGFSGAFDGRSATLSTDGYCYSPSLQQWQPVSTPIGSDSVPVALGGGAGIALTDSLILCTGGVNKDIFLSALQREEMMKAAVTGGNQAAVDSLKSEAKTYMLHPAEWYRFNDRILIYNTRRDKWEEAVRSQDVARAGAALTTGQGQTFFNINGELKPGIRTPEIAKIMID” the entry was “failed”. With “MTEYWVSQGNKWCEFCKIWIQNNPTSIRNHDLGKRHRECVDKKLTDMRERSAAKDKELKKNEKLLQQIEAKATRSYQKDIATAQQVAKANGAPEDGTSDWMLDSASGYYYNQTNGLHYDSQSGFYYSDSIGHWVTQDEAYAAVKTSSGTKVPLVKKPVSSSGAGPSVGKPPGRLVTASLNPKRAVKGAASSVDLGNNKRKRQDEKPKKVSAEEKAALKAREAARKRVEDREKPLLGLYNRPF” the entry was “failed”. “MTFGQSIGTCFAKYITFSGRASRPEYWYFFLFLLLGSIAATMLDALLFDAVTTTVETSDTSTSARIENTGPIAPIFSLAVFLPHLAVAFRRMHDTGRSGIYAILPFLLMLCAVLVLVFGVGIASSFAAGGSLDLLFTRATLLLLIPTLAVLFISPLLVLWWLTRPSQPGTNQYGPNPVRAVAS”: the protein production entry is reported as “failed”. As for “MTFGSLFRNQTRTVVKGHIFNLPNSLSILRILLIPWFIYYLDAGQTHIALIIMVVALLSDWFDGQMARWTNEVSDMGKILDPLADKLCLASVALYYLWKGELPVWFVVFVVFRDLVIFLGAAWIRHRHNVLTTSLWPGKWAVGFVSMMFISMVWPLPVFRQWPVKEFFMYLSAATLFYSFVEYCIRFYKIQKGAEFKA”, the entry is “failed”; as for “MTGALVSSEMMARAAAAAGLSDEADRPGPAPLASPSYLALESASILTDGGVFLKVMHPEMRQDFDLGAAMALARQAGEAGIGPRVLWADPAQGAIAMEALTEAGGWRRAMQVDLQEAPVLGAAMSALKALHATPALSSRFDPFAQIDGLIADYSRLGAPLPEDTGWLRRLIGAAEPVLRTGADLAPCRNDGAASNLMLGPGGAVRLVDYDRAGMNDPLYDVGALLAETTDFEREMQAGFAAYAGAFDEVAFARARLWSFVDDMLHALWSRLKARTSARGGVEWLKYGEWRLMRLRMALNHPQYEQKIRLAGGAA”, “failed”; as for “MTGASRARMHQLEREGDRPAKRVNKLLSDQETMIGAVLLGNNLINILASALATQVLTTLIPGPWGVAVATAAMTVLILIFAEVLPKTLAIVRSDDVARALSAPTLFIVRLFGPIIYAIQWIVRRTLRVFGVKLDMAVDVLAAHEEIRGAVDYHHSEGLVETDDRRMLGGVLDLSDMDVSEIMVHRKSMVLLDAGLPARELVDAVLEAQHTRIPLYRDQPDNIVGVLHARDLLKALAECPTGVEGLDIAAILREPWFIPDATNLKDQLNAFLKRKNHFALVVDEYGALQGLVTLEDILEEIVGEIEDEHDTTLDGVRRQGDGSVNVDGHVTVRDLNRAMDWRLPEGEAVTIAGLVIHEAQMIPEPGQTFIFYRHRFQVLRRQRNQITALRISARLDDDSDA”, “failed”.

With “MTGFAPQAGLPSHSVQVADHFDGNSPRGSPMSSGGHPVDRNRGLQPQKEAFSGPAAGKPFHPQALSKYSRHYSPEDELSAEAQPIAAYKIVSQSNKQLLAGSVSVTSLSSRTTELATADPFALAPFPSKAGKQKP”, the protein production entry is “failed”. With “MTGHIDPTKEVFAQFRANDREGPIHMLNLVRLRPRAAYPDGRETTGAEAYAAYGRDSGPVFERLGGKVVWQGQFELMLIGPQDEHWDHVFIAEYPSVAAFVEMIRDPVYREAVKHRQAAVEDSRLIRLKPLKPGKGFGEIPT” the entry was “not failed”. With “MTGKPLTDYVALGFTALERGDCQEAVNIFRRAQETGPTARSFVGLGLAFHRLGDPPAARWAFAKALDLEPADRDANEWIERIGRPAVPARTSGGRGCRFRAGEDFLQIKENGSWRRFFIKGINLGLGLPGYFPGEYPIHRETYRRWFRLMGELGVNSLRVYAVQSPGFYEALADHNEQGGRLFLFQGIWLELPEDGDFRGRDFLAYAHRQIREAVDSVCGSADFPERPGLPHGSYRRDVSPWTAAYVVGREWESCAVRAFNGRYGRKRGGFAGQFLKVDDGLPFEQWAAEICDYLQSYEHATYDCTHPVTTINWPTLDPLTHPSESTYEEGLIRQGFQVNVDVCNEDEDVETFDPALIASRQGAGFFATYHVYPYYPDFLNNDFLDVENPYREYLKRLRRHHGRQPVVIAEFGVPSSREATHWQRDGWHHGGHDEVSQGKINGYMMEAIRDAGLAGGMLFSWFDEWFKRNWVFLPYELPAERNPFWFNHQDAEQTYGLMAAYPGYPGKVVTLAGRREEWRDASLLQEKRGGAPLHRFGDGRDGARTLVRLSARHDEGFFYLCLETAEPVDFSAAHYLIGLNTCGAKAGETLLPFDTNARSPLGLTFLIHLAGEGASRILVSRFYDKYLNEGLPVRPVPSDTGEWVVMQNITNHRRISKDGTRFYPSRVFSMSGLRFGSLDPQSPRFDSLADWHVSGTLIELRLPWGLLNITDPSSRQVLWMAEQGGKTHTTDGIAAIACSYRPSGEGLAARPTGGRTNLADSLPAGLGSDAVRRYQWERWNHPLYHTYLKRSYYLYRDVLDRMPE” the entry was “failed”; with “MTGLINAIPATNKDEYKNVGVYIEHRGDELKRPSIEMIGIGKQLARKVNEKLICVVIGDKVDGIAKEVGEYGCDIVLAAESPELAEYRTMPYAEIIGGYIQEYKPNIFLLAATRNGRDLASRIAVKSRTGITADCTVLDIDENRTLLANRPTYGESTLAEILCRNHRPQMATARPGIFPPAEKEKDHKYEVIKKKVDVDKKLLGKQILKFI”, “not failed”; with “MTGSCLCQGIRYEISGHGLGDIIECHCQRCRKANGTAYATNTPVHVDDFKIVQGEHLLKKYQSTPTTQRCFCSECGSPIMSIKTDTPEYYRLRIGTLDTKIEQKPSMHIFAAHKAEWDTITDDLPQYAERP”, “failed”. As for “MTGVLSGMAKTYLEFSDPNGAEHKFYEVTVDGPELTIRYGRIGTDGQRSTKTFPDAAVAQAEADKKIREKRKKGYEDAVMGARQKRTVVRREVTETRSTTRQIAPVLWRFKTRSAAYGIFVDQNTAWVGNDSGEVFALTLSGEVDRSFRLPDGVKCLVSDQFRTFAGCDDGNVYDLSGKLPFMAYEVESKAALLWLDLHGGTLGVSDSGGGVYAFDAESDQQWGHTDDRASMGWMVRVDARGVYYGHSRGVGMFDRESGFPNWHRPTRGSVLFGWQEGNDLYAGTSANLIQRFTKAGEHVQDYQCDGSVLSCAASPGGEFVFAGDSGSAVYCFNRAGERLWKLGTGCASALSMQFAADKLYIVTTNGTLAAIDVSPAAIEAARQGTTPEVRDVKLAAAMPAQAPATELTVTRNASGGVLLRGVQEGSKVRIRPDDSRFHKDWNVQFPRNLRAADGLYVVDDLEDAGGFYRVVGDLRRLENLEHHHHHH”, the entry is “not failed”.
